According to patent publication US10925971B2, “Methods of treating PRLR positive breast cancer” (Regeneron Pharmaceuticals, Inc., priority 2016, dated 2021):
Residue numbers refer to the chain shown, from its start.

T1: human PRLR on HEK293/hPRLR cells (Homo sapiens, UniProt P16471)
T1 construct: HA; expressed in transfected cells; host or cells: HEK293
T1 sequence (P16471 25-622): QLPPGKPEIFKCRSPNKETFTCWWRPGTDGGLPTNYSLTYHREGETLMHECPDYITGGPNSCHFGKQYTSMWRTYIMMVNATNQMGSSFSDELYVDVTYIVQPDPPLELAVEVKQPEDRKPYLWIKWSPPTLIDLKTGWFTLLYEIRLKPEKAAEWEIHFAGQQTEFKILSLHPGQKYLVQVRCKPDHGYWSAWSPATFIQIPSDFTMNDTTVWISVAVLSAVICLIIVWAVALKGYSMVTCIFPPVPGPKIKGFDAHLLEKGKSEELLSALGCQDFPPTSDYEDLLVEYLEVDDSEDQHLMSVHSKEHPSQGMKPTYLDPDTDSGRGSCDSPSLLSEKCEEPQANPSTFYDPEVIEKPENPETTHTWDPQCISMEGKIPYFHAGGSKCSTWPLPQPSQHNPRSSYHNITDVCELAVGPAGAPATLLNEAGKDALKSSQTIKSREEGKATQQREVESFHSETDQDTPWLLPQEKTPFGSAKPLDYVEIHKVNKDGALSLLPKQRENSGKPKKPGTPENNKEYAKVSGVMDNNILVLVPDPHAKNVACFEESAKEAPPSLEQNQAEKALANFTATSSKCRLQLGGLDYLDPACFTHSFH

T2: monkey PRLR on HEK293/mfPRLR cells (Macaca fascicularis, UniProt A0A2K5WXK1)
T2 construct: HA; expressed in transfected cells; host or cells: HEK293
T2 sequence (A0A2K5WXK1 25-619): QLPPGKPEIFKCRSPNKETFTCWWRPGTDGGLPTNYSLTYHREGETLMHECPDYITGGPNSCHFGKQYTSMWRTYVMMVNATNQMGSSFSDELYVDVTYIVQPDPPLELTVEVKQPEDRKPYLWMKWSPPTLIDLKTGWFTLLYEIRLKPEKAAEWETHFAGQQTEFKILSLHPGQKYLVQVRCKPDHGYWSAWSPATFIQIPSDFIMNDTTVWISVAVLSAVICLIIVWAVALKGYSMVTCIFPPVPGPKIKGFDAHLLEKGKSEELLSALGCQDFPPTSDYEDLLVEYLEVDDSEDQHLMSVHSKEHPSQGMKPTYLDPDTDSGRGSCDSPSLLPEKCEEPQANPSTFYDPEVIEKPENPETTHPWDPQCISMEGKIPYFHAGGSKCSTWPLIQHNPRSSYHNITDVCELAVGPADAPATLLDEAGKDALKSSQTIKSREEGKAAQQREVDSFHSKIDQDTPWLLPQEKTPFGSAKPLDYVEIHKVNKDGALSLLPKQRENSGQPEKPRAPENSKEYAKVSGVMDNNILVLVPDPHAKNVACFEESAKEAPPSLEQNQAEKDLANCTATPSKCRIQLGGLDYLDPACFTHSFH

T3: mouse PRLR on HEK293/mPRLR cells (Mus musculus, UniProt Q08501)
T3 construct: HA; expressed in transfected cells; host or cells: HEK293
T3 sequence (Q08501 20-608): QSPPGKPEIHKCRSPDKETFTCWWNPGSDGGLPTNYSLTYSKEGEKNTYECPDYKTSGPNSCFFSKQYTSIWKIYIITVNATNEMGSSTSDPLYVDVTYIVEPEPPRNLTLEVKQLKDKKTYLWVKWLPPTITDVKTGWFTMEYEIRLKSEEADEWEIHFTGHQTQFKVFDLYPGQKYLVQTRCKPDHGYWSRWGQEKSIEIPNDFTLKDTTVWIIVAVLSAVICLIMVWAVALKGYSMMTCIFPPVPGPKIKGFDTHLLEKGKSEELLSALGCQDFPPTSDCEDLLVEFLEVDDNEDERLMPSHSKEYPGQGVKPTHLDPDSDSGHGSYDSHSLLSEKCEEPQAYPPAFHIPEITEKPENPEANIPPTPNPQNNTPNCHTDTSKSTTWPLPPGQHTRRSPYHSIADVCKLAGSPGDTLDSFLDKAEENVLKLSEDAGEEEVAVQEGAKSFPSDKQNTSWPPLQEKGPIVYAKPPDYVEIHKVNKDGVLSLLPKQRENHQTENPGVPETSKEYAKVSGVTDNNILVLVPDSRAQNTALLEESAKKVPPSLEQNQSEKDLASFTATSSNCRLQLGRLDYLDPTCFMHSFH

T4: native PRLR expressing T47D cells (Homo sapiens, UniProt P16471)
T4 construct: a native PRLR expressing cell line (T47D); endogenous in cells; host or cells: T47D
T4 sequence (P16471 25-622): T1 sequence (P16471 25-622)

B1: H1H6960N: anti-PRLR antibody, human IgG1 Fc form of H2M6960N of Table 1; HCVR/LCVR SEQ ID NOs 322/330 (antibody, V domains shown)
VH: EVQLVESGGGLVKPGGSLRLSCAASGITFSSYSMNWVRQAPGKGLEWVSSISTRSSLIHYADSVKGRFTISRDNAKNSLYLQMNSLRDEDTAVYYCARWDAAAAFDYWGQGTLVIVSS
VL: DIQLTQSPSFLSASVGDRVTITCWASQGISSYLAWYQQKPGKAPKLLIYVASTLQSGVPSRFSGSGSGTEFTLTISSLQPEDFATYFCQQLNSYPLTFGGGTKVEIK
modifications: human IgG1 Fc
B2: H1H6966N: anti-PRLR antibody, human IgG1 Fc form of H2M6966N of Table 1; HCVR/LCVR SEQ ID NOs 338/346 (antibody, V domains shown)
VH: QVQLVQSGAEVQKPGASVKVSCKVSGYTLTALSIHWVRQAPGKGLEWMGNFDPGDGETIHAQKFQGRVTMTGDTSTDTAYMELSSLRSEDTAVYYCVGVTFDYWGQGTLVTVSS
VL: EIVMTQSPATLSVSPGERATLSCRASQSVASNLAWYQQKPGQAPRLLLYGASTRATGIPARFSGSGSGTEFTLTISSLQSEDFALYYCQHYNNWPLTFGGGTKVEIK
modifications: human IgG1 Fc
B3: H1H6967N: anti-PRLR antibody, human IgG1 Fc form of H2M6967N of Table 1; HCVR/LCVR SEQ ID NOs 354/362 (antibody, V domains shown)
VH: EVQLVESGGDLVHPGRSLRLSCAASGFPFDEYAMHWVRQVPGKGLEWVSGISWSNNNIGYADSVKGRFTISRDNAKNSLYLQMNSLRPEDTAFYYCAKSGIFDSWGQGTLVTVSS
VL: B2 VL with A30S, S31R, N32D, L48I, Y49H, T69A, T74I, L85V, H90Q
modifications: human IgG1 Fc
B4: H1H6976N: anti-PRLR antibody, human IgG1 Fc form of H2M6976N of Table 1; HCVR/LCVR SEQ ID NOs 386/394 (antibody, V domains shown)
VH: EVQLLESGGGFVQPGGSLRLSCAASGFTFSSYAMSWVRQAPGKGLEWVSIISSNGRYTYYADSVKGRFTISRDNSKNTLYLQMNSLRAEDTAVYYCATVTGDWFDPWGQGTLVTVSS
VL: DIQLTQSPSFLSASVGDRVTITCWASQDIDISLAWYQQKPGKAPKLLIYAASTLQSGVPSKFSGSGSGTDFTLTISSLQPEDFSTYYCQQLNSYPITFGQGTRLDIK
modifications: human IgG1 Fc

How the values were obtained:
[1] = system: Macaca fascicularis PRLR (mfPRLR.mmh; SEQ ID NO:403); test: Surface plasmon resonance (Biacore T200), antibody-capture format; type: binding; conditions: analyte mfPRLR.mmh
Sequence of Macaca fascicularis PRLR (mfPRLR.mmh; SEQ ID NO:403) (as listed by the source): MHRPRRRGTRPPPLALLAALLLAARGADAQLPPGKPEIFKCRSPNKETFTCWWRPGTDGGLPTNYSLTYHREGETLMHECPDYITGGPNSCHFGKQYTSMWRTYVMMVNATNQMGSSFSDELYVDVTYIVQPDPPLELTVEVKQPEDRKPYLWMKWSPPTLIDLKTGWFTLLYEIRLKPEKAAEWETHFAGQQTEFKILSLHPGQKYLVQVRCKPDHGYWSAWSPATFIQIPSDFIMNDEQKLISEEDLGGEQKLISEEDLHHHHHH
Description: (§1) Antibodies, expressed as human IgG1 Fc (i.e., “H1H” designations), were captured onto an anti-human Fc sensor surface (mAb-capture format), and soluble monomeric (hPRLR.mmh; SEQ ID NO:401, or Macaca fascicularis (mf) PRLR.mmh; SEQ ID NO:403) or dimeric (hPRLR.mFc; SEQ ID NO:402) PRLR protein was injected over the sensor surface. Measurements were conducted on a T200 Biacore instrument. Kinetic association (ka) and dissociation (kd) rate constants were determined by processing and fitting the data to a 1:1 binding model using Scrubber 2.0 curve fitting software.

[2] = target: T5, dimeric human PRLR (hPRLR.mFc; SEQ ID NO:402) (Homo sapiens, UniProt P16471); test: as above; type: binding; conditions: analyte hPRLR.mFc
T5 construct: dimeric (hPRLR.mFc)
T5 sequence (P16471 with tags, fused parts or gaps): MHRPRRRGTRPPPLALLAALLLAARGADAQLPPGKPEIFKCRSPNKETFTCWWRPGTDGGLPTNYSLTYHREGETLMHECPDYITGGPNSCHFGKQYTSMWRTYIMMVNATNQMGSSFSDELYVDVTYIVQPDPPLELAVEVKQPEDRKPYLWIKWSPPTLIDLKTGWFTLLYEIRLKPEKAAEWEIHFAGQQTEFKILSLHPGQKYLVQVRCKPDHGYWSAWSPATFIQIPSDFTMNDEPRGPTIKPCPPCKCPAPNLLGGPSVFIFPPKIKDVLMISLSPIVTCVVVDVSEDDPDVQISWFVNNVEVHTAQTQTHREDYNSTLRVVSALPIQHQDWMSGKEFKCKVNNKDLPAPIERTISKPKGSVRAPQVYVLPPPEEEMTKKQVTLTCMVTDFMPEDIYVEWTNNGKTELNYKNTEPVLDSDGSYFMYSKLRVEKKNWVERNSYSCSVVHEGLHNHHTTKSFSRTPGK
Description: as §1

[3] = target: T6, monomeric human PRLR (hPRLR.mmh; SEQ ID NO:401) (Homo sapiens, UniProt P16471); test: as above; type: binding; conditions: analyte hPRLR.mmh
T6 construct: soluble monomeric (hPRLR.mmh); mmh (myc-myc-hexahistidine) (C)
T6 sequence (P16471 with tags, fused parts or gaps): as the sequence (as listed by the source) above, with V105I, T139A, M154I, T187I, I236T counted along it
Description: as §1

HEK293 parental cells = test: FACS cell surface binding; design: species or system human
Description: (§2) The ability of anti-PRLR antibodies to selectively bind PRLR expressing cell lines was next determined. Human, monkey Macaca fascicularis, and mouse PRLR constructs with an HA tag were stably introduced into HEK293 cells via Lipofectamine 2000-mediated transfection methodology. Transfectants (HEK293/hPRLR, HEK293/mfPRLR and HEK293/mPRLR) were selected for at least 2 weeks in complete growth media plus G418.
(§3) Cell surface expression of PRLR on 293/hPRLR cells was assessed via FACS analysis. Briefly, 1×10^5 cells were incubated with 10 μg/ml of Control antibody I, or an isotype control for 30 min on ice in antibody dilution buffer. Following two washes with antibody dilution buffer, cells were incubated with 10 μg/ml of PE conjugated anti-human secondary antibodies for 30 min on ice. Following two additional washes, samples were run on a Hypercyt® cytometer and analyzed in ForeCyt™ (IntelliCyt, Albuquerque, N. Mex.). The mean fluorescence intensities (MFI) were expressed as fold change above isotype control levels (background). FACS binding confirmed that Control I selectively bound to 293/hPRLR expressing cells with MFIs that were 30 fold above background (isotype ctrl) levels and less than 2 fold binding on parental cells.
(§4) Next, the anti-PRLR antibodies were tested via FACS for selective binding to the engineered overexpressing PRLR HEK293 cell lines, as well as to non-expressing HEK293 cells and a native PRLR expressing cell line (T47D).

[4] = target: T1, human PRLR on HEK293/hPRLR cells; test: FACS cell surface binding
Description: as §2, §3, §4

[5] = target: T2, monkey PRLR on HEK293/mfPRLR cells; test: FACS cell surface binding
Description: as §2, §3, §4

[6] = target: T3, mouse PRLR on HEK293/mPRLR cells; test: FACS cell surface binding
Description: as §2, §3, §4

[7] = target: T4, native PRLR expressing T47D cells; test: FACS cell surface binding
Description: as §3, §4

| Molecule | ka ([1]; 25° C.) [M/s] | kd ([1]; 25° C.) [s⁻¹] | ka ([1]; 37° C.) [M/s] | kd ([1]; 37° C.) [s⁻¹] | ka ([2]; 25° C.) [M/s] | kd ([2]; 25° C.) [s⁻¹] | ka ([2]; 37° C.) [M/s] | kd ([2]; 37° C.) [s⁻¹] | ka ([3]; 25° C.) [M/s] | kd ([3]; 25° C.) [s⁻¹] | ka ([3]; 37° C.) [M/s] | kd ([3]; 37° C.) [s⁻¹] | FACS Cell Binding (HEK293 parental cells) [Fold Above Background] | FACS Cell Binding [4] [Fold Above Background] | FACS Cell Binding [5] [Fold Above Background] | FACS Cell Binding [6] [Fold Above Background] | FACS Cell Binding [7] [Fold Above Background] |
| --- | --- | --- | --- | --- | --- | --- | --- | --- | --- | --- | --- | --- | --- | --- | --- | --- | --- |
| B1 | 94000 | 0.000583 | 86400 | 0.00128 | 252000 | 3.56e-05 | 294000 | 0.000147 | 108000 | 0.000729 | 122000 | 0.00198 | 1 | 29 | 23 | 1 | 33 |
| B2 | 782000 | 0.000325 | 1.22e+06 | 0.0012 | 931000 | 4.08e-05 | 1.88e+06 | 0.000127 | 852000 | 0.000257 | 1.58e+06 | 0.00096 | 1 | 29 | 18 | 1 | 31 |
| B3 | 190000 | 0.000585 | 356000 | 0.00162 | 407000 | 4.45e-05 | 907000 | 9.73e-05 | 246000 | 0.000332 | 424000 | 0.000933 | 1 | 38 | 28 | 2 | 41 |
| B4 | 466000 | 0.000814 | 603000 | 0.00316 | 1.12e+06 | 0.000101 | 1.37e+06 | 0.00014 | 544000 | 0.000864 | 777000 | 0.00314 | 1 | 8 | 29 | 1 | 37 |
